Test results from paper PMC10106851, “Wheat yellow mosaic virus NIb targets TaVTC2 to elicit broad‐spectrum pathogen resistance in wheat” (Plant Biotechnology Journal, 2023).

Experiments:
TaVTC2 = target: T1, TaVTC2 (Triticum aestivum, UniProt A0A650C200); assay: microscale thermophoresis; type: binding
T1 construct: gene GGP2-D; full-length CDS; recombinant GST fusion (TaVTC2-GST) from E. coli BL21
T1 sequence (A0A650C200 1-431): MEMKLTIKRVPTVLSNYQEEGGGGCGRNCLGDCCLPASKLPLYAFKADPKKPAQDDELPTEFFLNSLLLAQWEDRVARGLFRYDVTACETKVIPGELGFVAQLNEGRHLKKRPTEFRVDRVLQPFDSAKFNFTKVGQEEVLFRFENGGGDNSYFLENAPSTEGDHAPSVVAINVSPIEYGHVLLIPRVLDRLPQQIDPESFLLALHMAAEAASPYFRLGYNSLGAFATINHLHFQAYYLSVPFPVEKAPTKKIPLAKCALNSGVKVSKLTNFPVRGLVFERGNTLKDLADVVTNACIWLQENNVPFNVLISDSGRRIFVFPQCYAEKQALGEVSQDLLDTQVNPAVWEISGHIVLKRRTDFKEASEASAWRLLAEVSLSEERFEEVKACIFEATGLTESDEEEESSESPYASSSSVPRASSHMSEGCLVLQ

[1] = target: TaVTC2-GST (wheat (Triticum aestivum)); assay: ITC; ITC 200 Micro Calorimeter, 20 °C; 10 mM Tris-HCl, 150 mM sodium chloride, pH 7.5; one-set-of-sites model; which protein was in the syringe is not given
NIb-His = target: T2, NIb-His (wheat yellow mosaic virus (WYMV)); assay: ITC
T2 chain: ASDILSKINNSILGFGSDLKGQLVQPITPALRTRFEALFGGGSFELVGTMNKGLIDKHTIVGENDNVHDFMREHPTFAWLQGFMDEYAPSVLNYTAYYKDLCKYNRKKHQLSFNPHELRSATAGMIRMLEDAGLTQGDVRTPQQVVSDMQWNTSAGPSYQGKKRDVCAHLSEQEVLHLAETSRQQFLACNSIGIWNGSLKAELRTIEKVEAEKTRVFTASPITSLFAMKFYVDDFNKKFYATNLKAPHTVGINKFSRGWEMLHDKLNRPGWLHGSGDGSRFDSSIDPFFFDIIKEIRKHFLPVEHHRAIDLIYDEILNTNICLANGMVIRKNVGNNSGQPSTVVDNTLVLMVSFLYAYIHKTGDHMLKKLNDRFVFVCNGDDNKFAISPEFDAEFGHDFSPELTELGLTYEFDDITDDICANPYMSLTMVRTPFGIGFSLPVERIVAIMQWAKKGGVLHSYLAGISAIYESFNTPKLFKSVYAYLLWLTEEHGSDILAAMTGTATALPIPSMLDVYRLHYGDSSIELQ

purified protein = substrate: Nc1nc2c(ncn2[C@@H]2O[C@H](COP(=O)(O)OP(=O)(O)O[C@H]3O[C@@H](CO)[C@@H](O)[C@@H](O)[C@@H]3O)[C@@H](O)[C@H]2O)c(=O)[nH]1; assay: purified protein; type: biochemical, Triticum aestivum; conditions: 5 mM K2HPO4, 2.5 mM MgCl2, 50 mM KCl, 50 mM HEPES pH 6.9, 20 °C

## Nc1nc2c(ncn2[C@@H]2O[C@H](COP(=O)(O)OP(=O)(O)O[C@H]3O[C@@H](CO)[C@@H](O)[C@@H](O)[C@@H]3O)[C@@H](O)[C@H]2O)c(=O)[nH]1 [GDP-L-galactose]
TaVTC2
  Kd: 2.7 µM

## NIb-His (natural protein)
[1]
  Ka: 167000 M⁻¹

B1: TaVTC2-GST (enzyme)
chain: MEMKLTIKRVPTVLSNYQEEGGGGCGRNCLGDCCLPASKLPLYAFKADPKKPAQDDELPTEFFLNSLLLAQWEDRVARGLFRYDVTACETKVIPGELGFVAQLNEGRHLKKRPTEFRVDRVLQPFDSAKFNFTKVGQEEVLFRFENGGGDNSYFLENAPSTEGDHAPSVVAINVSPIEYGHVLLIPRVLDRLPQQIDPESFLLALHMAAEAASPYFRLGYNSLGAFATINHLHFQAYYLSVPFPVEKAPTKKIPLAKCALNSGVKVSKLTNFPVRGLVFERGNTLKDLADVVTNACIWLQENNVPFNVLISDSGRRIFVFPQCYAEKQALGEVSQDLLDTQVNPAVWEISGHIVLKRRTDFKEASEASAWRLLAEVSLSEERFEEVKACIFEATGLTESDEEEESSESPYASSSSVPRASSHMSEGCLVLQ
NIb-His
  Kd: 5.98 µM
Purified protein
  Km: 78 ± 22.9 µM
